This note sets out measurements from US20190203229, “cis AND trans REQUIREMENTS FOR […] RESOLUTION OF HUMAN BOCAVIRUS 1” (University of Iowa Research Foundation, published 2019).

This data set has as its target GST (UniProt P08515 P08515:1-218). Description: EMSA; negative control. The conditions noted are these: label: 32P or biotin. (In general: Mobility shift assays separate free from complexed probe on a gel.)

Chain of GST (P08515 whole entry, one chain of several): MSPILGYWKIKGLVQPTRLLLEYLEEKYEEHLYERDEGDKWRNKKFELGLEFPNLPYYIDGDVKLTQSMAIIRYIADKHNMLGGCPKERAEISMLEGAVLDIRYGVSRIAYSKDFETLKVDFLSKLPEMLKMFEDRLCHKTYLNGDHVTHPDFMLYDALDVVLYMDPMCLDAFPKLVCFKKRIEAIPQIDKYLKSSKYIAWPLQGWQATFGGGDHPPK

B1: B19V Ori (dsDNA)
DNA 1: GCCGCCGGTCGCCGCCGGTAGGCGGGACTTCCGGTACA
DNA 2: TGTACCGGAAGTCCCGCCTACCGGCGGCGACCGGCGGC
B1: the binding result is on record as “no binding”.
